T1: PHF23 PHD finger (PHF23PHD) (Homo sapiens, UniProt Q9BUL5)
T1 construct: PHD domain (aa 338–393)
T1 sequence (Q9BUL5 338-393): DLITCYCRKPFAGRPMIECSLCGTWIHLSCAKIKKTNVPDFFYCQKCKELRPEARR

T2: PHD finger of PHF23 (aa 338-393), L358M cancer-relevant mutant (human, UniProt Q9BUL5 338-393, L358M)
T2 construct: human PHF23, PHD domain, aa 338-393, with the cancer-relevant mutation L358M (Cosmic); also called PHF23PHD L358M; source: E. coli BL21 (DE3) RIL, grown and purified as wild-type protein
T2 sequence (looked up): T1 sequence (Q9BUL5 338-393) with L21M

T3: PHD finger of PHF23 (aa 338-393), R345L cancer-relevant mutant (human, UniProt Q9BUL5 338-393, R345L)
T3 construct: human PHF23, PHD domain, aa 338-393, with the cancer-relevant mutation R345L (Cosmic); also called PHF23PHD R345L; source: E. coli BL21 (DE3) RIL, grown and purified as wild-type protein
T3 sequence (looked up): T1 sequence (Q9BUL5 338-393) with R8L

B1: histone H3K4me1 peptide (peptide)
chain: ARTK(Me)QTARKSTG
B2: histone H3K4me0 peptide (unmodified H3) (peptide)
chain: ARTKQTARKSTG
modifications: unmodified Lys4. Limits 1-12 taken from the H3K4me3 peptide of the same titration series
B3: PHD finger of PHF23 (aa 338-393), wild type (domain or fragment, human, UniProt Q9BUL5 338-393, looked up)
chain: T1 sequence (Q9BUL5 338-393)
notes: human PHF23, PHD domain, aa 338-393, cloned into pGEX 6p-1; 15N- or 13C,15N-labelled for NMR; also called PHF23PHD; WT PHF23PHD; source: E. coli BL21 (DE3) RIL, purified (glutathione Sepharose 4B, GST cleaved, size exclusion chromatography)
B4: histone H3K4me3 peptide (aa 1-12 of H3K4me3) (peptide, UniProt P68431 2-13, looked up)
peptide: ART[Lys(Me3)]QTARKSTG
notes: histone H3, residues 1-12, trimethylated on Lys4; source: synthetic peptide (SynPeptide)

For data set [1], the target named is T1, PHF23 PHD finger (PHF23PHD). Put plainly: 1H, […] HSQC NMR titration; nonreducing SDS-PAGE. Format: binding.
In data set [2] the target is histone H3K4me3 peptide (Homo sapiens) (UniProt P68431). Conditions: cited from earlier work.
Data set [3] has the same target. Conditions: cited from earlier work. The source holds these as a separate data set.
Data set [4] addresses PHD finger of PHF23 (aa 338-393), wild type (human) (UniProt Q9BUL5). Put plainly: other fluorescence titration; intrinsic tryptophan fluorescence, 25 °C; 2.0 µM PHF23PHD with increasing peptide, PBS (pH 6.5), 1 mM TCEP, excitation 295 nm; Kd averaged over three experiments.
The target of data set [5] is B3. In words: NMR titration; 1H,15N HSQC at 298 K; 0.1 mM 15N-labeled PHD in PBS (pH 6.5), 1 mM TCEP, 8% D2O; histone H3 peptide titrated in; Kd from chemical shift changes against peptide concentration. Particulars: both partners purified.
Data set [6] concerns the molecule itself. In words: crystal structure; PHF23PHD crystallized in the presence of H3K4me3 peptide; 0.1 M Tris pH 8.65, 25% tert-butanol, 18 °C; 2.9 Å; the peptide is not in the structure.
In data set [7] the target is T2, PHD finger of PHF23 (aa 338-393), L358M …. Put plainly: other fluorescence titration; intrinsic tryptophan fluorescence, 25 °C; 2.0 µM PHF23PHD with increasing peptide, PBS (pH 6.5), 1 mM TCEP, excitation 295 nm; Kd averaged over three experiments. Conditions: both partners purified.
The target in data set [8] is B3. The description is as above. Conditions: both partners purified.
For data set [9], the target named is T3, PHD finger of PHF23 (aa 338-393), R345L …. The data set is described as above. Conditions: both partners purified.
The target in data set [10] is PHD finger of PHF23 (aa 338-393), L358M cancer-relevant mutant (human, UniProt Q9BUL5 338-393, L358M).
Target sequence in this assay (Q9BUL5 338-393 L358M): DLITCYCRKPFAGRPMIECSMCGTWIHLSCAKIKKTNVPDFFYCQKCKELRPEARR
Data set [11] concerns the target PHD finger of PHF23 (aa 338-393), R345L cancer-relevant mutant (human, UniProt Q9BUL5 338-393, R345L).

Positions count from the first letter of the chain named. Read-outs that look alike come from different tables or passages of the source. Non-standard residues stand in square brackets, D forms with d. No end group written: not given here. Lys(Me3) = C[N+](C)(C)CCCC[C@H](N)C(=O)O

Regarding `CCN(CC)C(=S)SSC(=S)N(CC)CC` [DS, disulfiram], in data set [1], the “1H,15N HSQC NMR titration; nonreducing SDS-PAGE” value was “Gradual addition of AD or DS to PHF23PHD induced small but significant CSPs in the protein, indicative of direct interactions”.

By Kd is commonly meant the constant that tells how readily two partners part at equilibrium. In the case of BPTF PHD (from UniProt Q12830), the dissociation constant (Kd) in data set [2] was 3 µM. Take KDM5A PHD (from UniProt P29375): in [3], the Kd was 0.9 µM. Regarding histone H3K4me2 peptide, in [4], the Kd came out at 8 µM. Take B1: the Kd in [5] stood at 580 µM. Still for that read-out and setting: with B2 the figure was 1600 µM.

Consider B3, for which, in data set [6], the binding result was “binds”.

Regarding B4, the binding result in data set [7] and in [9] was “binds” in each case. In addition, the results for the Kd in data set [8], in data set [10] and in data set [11] were 2 µM, 2.4 µM and 4.3 µM, respectively.

The values above are taken from article PMC7335091, “Mechanistic insights into chromatin targeting by leukemic NUP98-PHF23 fusion” (Nature Communications, 2020).
